Measurements from publication PMC4332860.

Molecular target: Human coagulation factor X (human)
Test: SPR; human FX amine-coupled to a CMD500m chip; vector particles 1.25x10^8 to 1x10^9 physical particles per millilitre passed for 3 min at 25 μl/min; 10 mM HEPES pH 7.4, 150 mM NaCl, 5 mM CaCl2, 0.005% Tween 20; reference flow cell subtracted

“AdGFPhCKS17, ΔE1/E3 Ad5 vector particles with CKS17 peptide in place of hexon HVR5 (from UniProt P04133 1-952; P11818 1-581) (complex)” was tested. Which percent reduction of binding against AdGFPhWt did it give?
The percent reduction of binding against AdGFPhWt was 30%.
